B1: AT1R wildtype C-terminally fused to YPet [not stated] / AT1R wildtype coupled to mTurquoise2 [not stated] (parent)
chain 1: MILNSSTEDGIKRIQDDCPKAGRHNYIFVMIPTLYSIIFVVGIFGNSLVVIVIYFYMKLKTVASVFLLNLALADLCFLLTLPLWAVYTAMEYRWPFGNYLCKIASASVSFNLYASVFLLTCLSIDRYLAIVHPMKSRLRRTMLVAKVTCIIIWLLAGLASLPAIIHRNVFFIENTNITVCAFHYESQNSTLPIGLGLTKNILGFLFPFLIILTSYTLIWKALKKAYEIQKNKPRNDDIFKIIMAIVLFFFFSWIPHQIFTFLDVLIQLGIIRDCRIADIVDTAMPITICIAYFNNCLNPLFYGFLGKKFKRYFLQLLKYIPPKAKSHSNLSTKMSTLSYRPSDNVSSSTKKPAPCFEVE
chain 2: B1 chain 1

Test [1] covers variants of B1. In words: FLIM (FRET) in living HEK293 cells. Particulars: with AT1R wildtype coupled to mTurquoise2, 2-exponential fitting, acceptor AT1R-YPet, read off a plot.
Test [2] covers variants of B1. In words: intensity-based FRET microscopy in living HEK293 cells. Particulars: with AT1R wildtype coupled to mTurquoise2; donor AT1R-mTurquoise2 (wildtype), acceptor AT1R-YPet; read off a plot.

The values below come from article PMC11335197.

As for chain 1 Y54A F55A F96A Y99A L100A, in test [1], the donor fluorescence lifetime was determined as 3 ns. Besides, in test [2], the response turned out to be 67%.

For the variant chain 1 S189A I193A L197A I201A L202A L205A F206A, the donor fluorescence lifetime in test [1] was determined as 3.5 ns. Further, in test [2], the response was determined as 35%.
